Results published in article PMC6379670, “An ultra-high affinity ligand of HIV-1 TAR reveals the RNA structure recognized by P-TEFb” (Nucleic Acids Research, 2018).
Non-standard residues stand in square brackets, D forms with d. Residues, ends and D or L forms follow the SMILES beside them. *: point of attachment. 5FAM = O=C1OC2(c3ccc(O)cc3Oc3cc(O)ccc32)c2ccc(C(=O)*)cc21

Assays:
[1] = system: Jurkat clone E4 (latent HIV provirus with LTR-driven GFP); experiment: Reactivation from latency; assay type: cell-based, HIV-1; conditions: E4 Jurkat cells, peptides 0.39-100 μM, TNFα 1 ng/ml, GFP by flow cytometry 24 h later, triplicate
Experimental: A 5 × 10^4 cells/well of Jurkat clone E4 (in RPMI ([38])) were added to a 96-well plate at the same time as a dilution series of JB181, cyclic L22 and linear L22 (0.39, 1.56, 6.25, 25, 50 and 100 μM) in triplicate. Four hours following peptide addition, tumor necrosis factor α (TNFα) (1 ng/ml, Peprotech, Rocky Hill, NJ) was added to stimulate HIV-1 transcription. Twenty-four hours later, the percentage of cells expressing GFP was determined by flow cytometry as described above.
Figure 3. (A) M7-luc cells were infected with the replication competent HIV-1 clone NLgNef at very low titer. Three days post-infection, GFP expression was measured by flow cytometry. […] (B) JB181 inhibits HIV-1 reactivation from latency. Tat-dependent expression of GFP is repressed in E4 Jurkat cells, which serve as a model of HIV latency. These cells were pre-incubated for 2 h with L22 (cyclic, green), L22 (linear, blue) or JB181 (cyclic, red) at concentrations 0.5–100 μM, then stimulated for reactivation by TNFα at 1ng/ml. Twenty-four hours later, reactivation as monitored by GFP expression was measured by flow cytometry. […] (C) Biochemical RT inhibition assays were conducted as described previously ([31]) for peptides JB59, JB60, JB181 and L50 along with AZT. (D) Competition EMSA comparing affinity of the P-TEFb/Tat1:57/AFF4 complex for wild-type HIV-TAR with or without JB181 pre-bound to TAR. […]

[2] = system: HIV-1 clone NLgNef in M7-luc cells; experiment: Spreading infection (inhibition of viral spread); assay type: cell-based; conditions: M7-luc cells infected with NLgNef
Experimental: A 5 × 10^6 5.25.EGFP.Luc.M7 cells (M7-luc, gift of N. Landau(36)) grown in Roswell Park Memorial Institute medium (RPMI) containing 25 mM 4-(2-hydroxyethyl)-1-piperazineethanesulfonic acid (HEPES) (GE Life Sciences, Pittsburgh, PA), 10% Fetal Bovine Serum (FBS) (Sigma, St. Louis, MO) and 100 μg/ml normocin (Invivogen, San Diego, CA) were infected with the HIV-1 strain NL43-GFP-IRES-Nef (NLgNef) that expresses Green Fluorescent Protein (GFP) and Nef on a bicistronic Nef messenger RNA (a gift of David Levy ([37])) at a low multiplicity of infection (<0.01 infectious units/cell). […] Forty-eight hours post peptide addition, the percentage of cells expressing GFP was determined by flow cytometry via BD Fortessa SORP (BD, Franklin Lakes, NJ). Flow cytometry data were analyzed using WinList 3D (Verity Software House, Topsham, ME). […]
To evaluate anti-viral potency, we tested compound JB181 for inhibition of viral spread (Figure 3A) by comparison with L22 and a linear peptide control (same sequence as L22 but not cyclized). […] Peptides were added 24 h post-infection and spread of infection determined after 72 h. […]
Figure 3. […] Three days post-infection, GFP expression was measured by flow cytometry. […] Twenty-four hours later, reactivation as monitored by GFP expression was measured by flow cytometry. […]

[3] = system: L22 (synthetic); experiment: EMSA
[4] = system: JB181 (synthetic); experiment: EMSA
[5] = system: JB186 (synthetic); experiment: EMSA
[6] = target: P-TEFb/Tat1:57/AFF4;JB181 (HIV-1 (Tat); human? (P-TEFb, AFF4);synthetic) (UniProt O60563+P50750+P04608+Q9UHB7); experiment: EMSA
[7] = system: JB184 (synthetic); experiment: EMSA
[8] = system: JB190 (synthetic); experiment: EMSA
[9] = system: JB58 (synthetic); experiment: EMSA
[10] = system: JB59 (synthetic); experiment: EMSA
[11] = system: JB185 (synthetic); experiment: EMSA
[12] = system: 2D10 Jurkat cells; assay type: cell-based; conditions: 1 mg/ml peptide in the extracellular medium, percent of cells containing peptide by flow cytometry
Experimental: (§1) Frozen, de-identified human PBMCs (Allcells, Alameda, CA) were thawed and stimulated with 6 IU IL-2 (R&D Systems, Minneapolis, MN) and 10 μg/ml concanavalin A (ConA, MilliporeSigma, Billerica, MA) in RPMI. Six days post-thaw, CD4+ T cells were positively isolated using an EasySep Human CD4 positive selection kit in a RoboSep robot (#18052RF, Stemcell Technologies, Cambridge, MA). 2D10 Jurkat cells ([38]) were also grown in RPMI. L22 selectively labeled with 5/6-carboxyfluorescein was added at indicated concentrations at indicated time points prior to flow cytometry analysis as described above.
(§2) Fig. S4. Uptake of fluorescein-labeled L22. a). The turn residue, Lys6, of L22 was first selectively labeled with 5/6-carboxyfluorescein using NHS coupling chemistry and incubated with either CD4+ T cells (top) […]
(§3) containing peptide was analyzed by flow cytometry. b). 2D10 Jurkat cells were first stimulated with TNFα for 4hrs then incubated with L22-AF647 (red) for 30min prior to FISH staining for HIV TAR RNA (yellow), nuclear staining with DAPI (blue) and GFP expression dependent on transcription of HIV (green).
(§4) Panel I overlay all four stains, Panel II is L22-AF647 only; Panel III is L22-AF647 and TAR FISH, Panel IV L22-AF647 and GFP expression.
(§5) (1 picture or pasted object on this page, not shown here)

[13] = system: CD4+ T cells; assay type: cell-based; conditions: human CD4+ T-cells; 1 mg/ml peptide in the extracellular medium; percent of cells containing peptide by flow cytometry
Experimental: as §1, §2, §3, §4, §5

[14] = system: JB181 (synthetic); experiment: 2-aminopurine fluorescence; conditions: C24 replaced by 2-aminopurine
[15] = target: P-TEFb/Tat1:57/AFF4 (HIV-1 (Tat); (P-TEFb, AFF4), UniProt O60563;P50750;P04608;Q9UHB7 1-264;1-330;1-57;2-73); experiment: EMSA; 250-fold excess yeast tRNA; RNA 100 pM; conditions: protein: recombinant; copies: 1;1;1;1; label: 5'-32P; hairpin with UCU bulge

With `CC[C@H](C)[C@@H]1NC(=O)[C@H](CCCNC(=N)N)NC(=O)[C@H](CCCNC(=N)N)NC(=O)CNC(=O)[C@H](CCCCN)NC(=O)[C@H](CCCNC(=N)N)NC(=O)[C@H]([C@@H](C)O)NC(=O)[C@H](CCCNC(=N)N)NC(=O)[C@H](C(C)C)NC(=O)[C@H](CCCNC(=N)N)NC(=O)[C@@H]2CCCN2C(=O)[C@H]2CCCN2C(=O)[C@H]([C@@H](C)CC)NC(=O)[C@H](CCCNC(=N)N)NC1=O` [Peptide L22] (cyclo(RVRTRKGRRIRI[dP]P)) the “inhibition of HIV-1 reactivation from latency (in words)” value [1] was “inhibit at similar levels”, the “inhibition of HIV-1 reactivation from latency (in words)” value ([1]; listed as cyclic L22) was “blocked reactivation” and the “reduction of infection compared to no peptide controls” value ([2]; peptides 12.5 to 100 μM added 24 h post-infection, % GFP-expressing cells by flow cytometry, triplicate) was > 50%. The “inhibition of viral replication and spread (in words)” value ([2]; peptides 12.5 to 100 μM, GFP by flow cytometry) was “blocked replication and spread”.

“GGCAGAUCUGAGCCUGGGAGCUCUCUGCC [HIV-1 TAR]” was tested, and the Kd [3] was 30 nM, the Kd [4] was < 0.18 nM and the Kd [5] was 1.2 nM. The Kd [6] was 17 nM, the Kd [7] was > 250 nM and the Kd [8] was 1.6 nM. It also gave a Kd [9] of 3 nM, a Kd [10] of 1 nM and a Kd [11] of 0.5 nM.

For `CC[C@H](C)[C@@H]1NC(=O)[C@H](CCCNC(=N)N)NC(=O)[C@H](CCCNC(=N)N)NC(=O)CNC(=O)[C@H](CCCCNC(=O)c2ccc3c(c2)C(=O)OC32c3ccc(O)cc3Oc3cc(O)ccc32)NC(=O)[C@H](CCCNC(=N)N)NC(=O)[C@H]([C@@H](C)O)NC(=O)[C@H](CCCNC(=N)N)NC(=O)[C@H](C(C)C)NC(=O)[C@H](CCCNC(=N)N)NC(=O)[C@@H]2CCCN2C(=O)[C@H]2CCCN2C(=O)[C@H]([C@@H](C)CC)NC(=O)[C@H](CCCNC(=N)N)NC1=O` [fluorescein-labeled L22] (cyclo(RVRTRK(5FAM)GRRIRI[dP]P)), the “uptake (in words)” value [12] was “good uptake” and the “uptake (in words)” value [13] was “good uptake”.

In the case of HIV-1 TAR C24 2-aminopurine, the Kd [14] is reported as 0.028 nM.

Molecule GGCAGAUCUGAGCCUGGGAGCUCUCUGCC (structured_RNA) [HIV-1 TAR] has a Kd [15] of 9 ± 4 nM.
